Data on 1 substance can be found in article PMC2172679.

In this test the target is p150^Glued subunit of dynactin (endogenous in melanophore extracts) (Xenopus laevis (endogenous in melanophores)) (UniProt Q6PCJ1). Briefly: co-IP.
Sequence of UniProt Q6PCJ1 (Q6PCJ1 whole entry): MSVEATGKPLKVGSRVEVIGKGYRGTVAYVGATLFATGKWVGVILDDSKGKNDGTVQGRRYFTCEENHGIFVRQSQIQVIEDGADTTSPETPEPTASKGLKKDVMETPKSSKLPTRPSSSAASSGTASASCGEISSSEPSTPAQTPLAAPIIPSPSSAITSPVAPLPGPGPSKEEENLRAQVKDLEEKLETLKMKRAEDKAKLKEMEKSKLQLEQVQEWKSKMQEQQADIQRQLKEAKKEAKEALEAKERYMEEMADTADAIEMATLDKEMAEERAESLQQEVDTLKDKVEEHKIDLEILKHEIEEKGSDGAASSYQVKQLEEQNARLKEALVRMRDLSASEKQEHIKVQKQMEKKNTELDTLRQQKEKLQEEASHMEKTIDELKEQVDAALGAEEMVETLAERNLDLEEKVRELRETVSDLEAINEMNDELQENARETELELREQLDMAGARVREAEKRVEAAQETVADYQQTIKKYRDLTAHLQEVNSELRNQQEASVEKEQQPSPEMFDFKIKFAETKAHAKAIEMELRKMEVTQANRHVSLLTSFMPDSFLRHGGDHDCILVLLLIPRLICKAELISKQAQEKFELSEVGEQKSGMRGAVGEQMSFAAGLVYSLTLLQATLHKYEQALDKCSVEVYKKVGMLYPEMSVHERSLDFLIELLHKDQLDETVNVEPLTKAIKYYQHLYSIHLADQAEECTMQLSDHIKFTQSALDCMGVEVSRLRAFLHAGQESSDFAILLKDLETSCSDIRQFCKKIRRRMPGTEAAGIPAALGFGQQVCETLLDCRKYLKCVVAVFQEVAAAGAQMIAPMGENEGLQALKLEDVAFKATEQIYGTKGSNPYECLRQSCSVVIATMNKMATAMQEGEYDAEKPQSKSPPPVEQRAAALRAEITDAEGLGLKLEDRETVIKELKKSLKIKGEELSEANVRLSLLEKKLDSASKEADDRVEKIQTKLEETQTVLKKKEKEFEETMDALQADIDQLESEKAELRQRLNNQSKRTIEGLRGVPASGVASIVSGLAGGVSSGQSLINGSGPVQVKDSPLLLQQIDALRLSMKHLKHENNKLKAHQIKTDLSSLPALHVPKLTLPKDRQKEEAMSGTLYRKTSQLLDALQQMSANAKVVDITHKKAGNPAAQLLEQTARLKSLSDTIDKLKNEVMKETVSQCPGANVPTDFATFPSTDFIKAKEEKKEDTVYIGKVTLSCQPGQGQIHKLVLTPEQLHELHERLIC

Turning to “kinesin II (Xenopus, endogenous in melanophore extracts) (complex)”, the percent of the total pool co-precipitated was determined as 1%.
